{
  "source": "patent US10590475B2",
  "about": "“Detection of immune cells, in particular T cells through DNA-methylation analysis of the genes CCR6 and BLR1” (Epiontis GmbH, priority 2010, dated 2020)",
  "test_system": "CCR6^+CD4^+ memory T cells",
  "experiment": "CCR6 expression on CCR6+CD4+ memory T cells after TCR stimulation (anti-CD3/anti-CD28 beads)",
  "assay_type": "cell-based, human",
  "conditions": "six days, TGF-ß 10 ng/ml",
  "description": "Buffy coats (DRK Blutspendedienst, Berlin, Germany) and peripheral blood samples were obtained from healthy donors after informed consent in accordance with local ethical committee approval. PBMCs were separated with a Ficoll-Hypaque gradient (Sigma-Aldrich). Cell surface antigens were analyzed by single-parameter or multi-parameter fluorescence-activated cell sorter (FACS®, BD Biosciences) analysis using the following monoclonal antibodies: PE-anti-CCR6 (11A9) and Alexa700-anti-CD4 (RPA-T4) (both from BD Biosciences). APC-anti-CD25 (BC96) was purchased from ebioscience. PE-Cy5-anti-CD8 (B9.11), PE-Cy5-anti-CD56 (N901) and FITC-anti-CD25 (B1.49.9) from Beckman Coulter. Antibodies generated in house (DRFZ, Berlin): FITC-anti-CD45RA (4G11), Alexa405-anti-CD4 (TT1) and Alexa405-anti-CD3 (OKT3). In some experiments, CCR6 expression was detected by indirect immunofluorescence using biotinylated CCR6 (11A9, BD Biosciences) followed by staining with APC-conjugated streptavidin (SouthernBiotech). […]\nMemory CD4^+CCR6^+ and CD4^+CCR6^− cells were stained with carboxyfluorescein succinimidyl ester (CFSE) and cultured either in CM containing magnetic beads as described above or 10 ng/ml IL-7 and 10 ng/ml IL-15 (R&D Systems). […] At the end of the cultures, cells were analyzed by flow cytometry and used for methylation analyses (see below).",
  "data": [
    {"molecule": "IL-4: cytokine reported to promote TCR-induced CCR6 down-regulation (protein, UniProt P05112 25-153, looked up) Interleukin-4: HKCDITLQEIIKTLNSLTEQKTLCTELTVTDIFAASKNTTEKETFCRAATVLRQFYSHHEKDTRCLGATAQQFHRHKQLIRFLKRLDRNLWGLAGLNSCPVKEANQSTLENFLERLKTIMREKYSKCSS", "values": [
      {"measurement": "effect on TCR-induced down-regulation of CCR6 expression", "result": "promoted"}
    ]}
  ]
}
